Literature values in patent US20220089455A1, “METHOD FOR PRODUCING NANOPARTICLE HAVING METAL PARTICLE WHICH CONTAINS IRON OXIDE TO WHICH ONE OR MORE HYDROPHILIC LIGANDS ARE COORDINATION BONDED” (ASTELLAS PHARMA INC., priority 2018, published 2022).

Details: standard used for SEC comparison

B1: ovalbumin (protein, UniProt P01012 2-386, looked up)
Ovalbumin: GSIGAASMEFCFDVFKELKVHHANENIFYCPIAIMSALAMVYLGAKDSTRTQINKVVRFDKLPGFGDSIEAQCGTSVNVHSSLRDILNQITKPNDVYSFSLASRLYAEERYPILPEYLQCVKELYRGGLEPINFQTAADQARELINSWVESQTNGIIRNVLQPSSVDSQTAMVLVNAIVFKGLWEKAFKDEDTQAMPFRVTEQESKPVQMMYQIGLFRVASMASEKMKILELPFASGTMSMLVLLPDEVSGLEQLESIINFEKLTEWTSSNVMEERKIKVYLPRMKMEEKYNLTSVLMAMGITDVFSSSANLSGISSAESLKISQAVHAAHAEINEAGREVVGSAEAGVDAASVSEEFRADHPFLFCIKHIATNAVLFFGRCVSP
particle diameter of the standard: 6.1 nm
